{"source": "patent US12296018B2", "about": "“Albumin binding peptide-drug (AlBiPeD) conjugates and methods of making and using same” (priority 2018, dated 2025)", "key": {"[1]": {"test_system": "C26 murine colon carcinoma cells", "experiment": "In vitro cytotoxicity (MTS, 72 h) C26", "type": "cell-based", "protocol": "(§1) In vitro cytotoxicity C26 murine colon carcinoma cells and three different pancreatic cancer cell lines, BxPC-3, AsPC-1, and MIA PaCa-2, were used to study the in vitro cytotoxicity of ABD-DOX and Dox. Cells were cultured and grown as monolayers at 37° C. with C02 in a humidified incubator and were passaged at ˜80% confluency using 0.05% trypsin-EDTA (Invitrogen, Carlsbad, CA). C26, BxPC-3, AsPC-1, and MIA PaCa-2 cells were seeded in 96-well plates (5,000 cells/well) and incubated overnight. Three-fold serial dilutions of drug were then added to the wells in triplicate and also to control wells (media with no cells) to correct for the background Dox absorbance. After 72 h treatment, 20 μL MTS reagent was added to each well and was incubated for 3 h at 37° C., and the absorbance at 490 nm was measured using a Victor3 plate reader (Perkin Elmer, Boston, MA). Cell viability (%) was defined as the percentage of the absorbance of the drug-treated cells relative to buffer-treated cells and IC50 values were determined using logistic non-linear regression analysis with GraphPad Prism software. The IC50 was defined as the Dox Equiv. concentration of formulations resulting in 50% growth inhibition compared with a negative control, buffer-treated cells."}, "[2]": {"test_system": "MIA PaCa-2 cells", "experiment": "In vitro cytotoxicity (MTS, 72 h) MIA PaCa-2", "type": "cell-based, human", "settings": "72 h incubation, Dox Equiv. concentration", "protocol": "as §1"}, "[3]": {"biological_target": "T1, human serum albumin (HSA) (Homo sapiens, UniProt P02768)", "T1 construct": "purchased Sigma-Aldrich (St. Louis, MO)", "experiment": "Native-PAGE mobility shift with HSA", "type": "binding", "settings": "1:1 molar ratio", "protocol": "(§2) The gel was stained with SimplyBlue stain according to the manufacturer's instructions and imaged using the Gel Doc imaging system (Bio-Rad, Hercules, CA). Isothermal titration calorimetry was done using a standard volume Nano ITC from TA instruments (Lindon, Utah). […] The calorimetric data were analyzed by NanoAnalyze software (TA instruments, Lindon, UT) and were fit to an independent binding site model to compute the thermodynamic parameters including dissociation constant (KD), binding stoichiometry (n), enthalpy (ΔH), and entropy (ΔS)."}, "[4]": {"experiment": "Dose-escalation study, maximum tolerated dose", "type": "in vivo, BALB/c mice", "protocol": "With these encouraging biodistribution results in hand, tumor regression in vivo by ABD-Dox was investigated. The maximum tolerated dose (MTD) of ABD-Dox was established in healthy mice. A range of doses of ABD-Dox were injected into healthy BALB/c mice, and body weight loss and mortality of the mice were monitored over a two-week period to assess systemic toxicity. […] Using these criteria, the MTD was determined to be 20 mg Dox Equiv.kg^−1 for ABD-Dox (FIG. 7) and 10 mgkg^−1 BW MTD of free Dox (FIG. 8)."}, "[5]": {"biological_target": "T2, mouse serum albumin (MSA) (Mus musculus, UniProt P07724)", "T2 construct": "purchased Sigma-Aldrich (St. Louis, MO)", "T2 sequence (P07724 25-608)": "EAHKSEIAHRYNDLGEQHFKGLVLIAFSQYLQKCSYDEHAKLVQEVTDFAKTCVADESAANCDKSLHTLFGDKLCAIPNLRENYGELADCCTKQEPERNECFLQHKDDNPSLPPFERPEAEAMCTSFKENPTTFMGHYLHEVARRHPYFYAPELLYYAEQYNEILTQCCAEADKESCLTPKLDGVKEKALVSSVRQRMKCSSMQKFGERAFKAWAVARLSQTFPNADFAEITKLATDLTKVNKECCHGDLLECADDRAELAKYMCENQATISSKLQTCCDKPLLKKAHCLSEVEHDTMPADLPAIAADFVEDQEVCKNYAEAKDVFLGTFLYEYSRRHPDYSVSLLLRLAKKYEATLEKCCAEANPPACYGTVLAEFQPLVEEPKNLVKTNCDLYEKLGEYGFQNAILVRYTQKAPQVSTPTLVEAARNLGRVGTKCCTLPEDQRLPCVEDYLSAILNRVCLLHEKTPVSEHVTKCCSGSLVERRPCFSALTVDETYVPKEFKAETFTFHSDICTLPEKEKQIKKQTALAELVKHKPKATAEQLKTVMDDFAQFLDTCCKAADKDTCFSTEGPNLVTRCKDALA", "experiment": "Isothermal titration calorimetry of ABD-Dox with MSA", "type": "binding", "settings": "ITC, 37° C., PBS", "protocol": "as §2"}, "[6]": {"experiment": "Aqueous solubility", "type": "physicochemical", "settings": "pH 7.4 PBS", "protocol": "To remove the ELP160 tag, the KEKE-ELP160-srt-ABD-Dox conjugate was buffer exchanged into sortase reaction buffer, and was reacted with (His)6-sortase A-ELP40 in the presence of a 50 fold molar excess of triglycine (FIG. 2A). The efficiency of the sortase reaction, defined as the percent conversion of ELP-ABD-Dox substrate to ABD-Dox, was determined by size exclusion HPLC and was calculated to be ≥85% (FIG. 3A). The ABD-Dox product was then separated from (His)6-sortase A-ELP40, the cleaved KEKE-ELP160 tag, and unreacted KEKE-ELP160-srt-ABD-Dox in the sortase reaction solution by preparative size exclusion chromatography (SEC). The number of Dox molecules conjugated per ABD (Dox/ABD molar ratio) was measured before the sortase reaction by dissolving the lyophilized KEKE-ELP160-srt-ABD-Dox conjugate in PBS and calculating the moles of KEKE-ELP160-srt-ABD-Dox and Dox gravimetrically and spectrophotometrically at 488 nm, respectively. 3-4 Dox molecules were attached to each KEKE-ELP160-srt-ABD-(CGG)8. However, following removing the ELP160 tag, the resulting ABD-Dox conjugate was too hydrophobic and insoluble in pH 7.4 PBS because of the high number of conjugated Dox molecules. […] Formulation of AlDox in acidic pH, however, is undesirable as it can trigger the premature, in vitro degradation of the hydrazone bond between Dox and EMCH, converting AlDox back to free Dox."}, "[7]": {"test_system": "BxPC-3 pancreatic cancer cells", "experiment": "In vitro cytotoxicity (MTS, 72 h) BxPC-3", "type": "cell-based, human", "settings": "72 h incubation, Dox Equiv. concentration", "protocol": "as §1"}}, "note": "Several values for one entry are separate records, joined by “and”; a condition that tells them apart may be missing. Identical values can stand only once.", "data": [{"substance": "ABD-Dox (GLAEAKVLANRELDKYGVSDYYKNLINNAKTVEGVKALIDEILAALPCGGCGGCGGCGG)", "values": [{"measurement": "IC50", "setting": "[1]; 72 h incubation, Dox Equiv. concentration", "value": "6.4 µM and 6.43 µM"}, {"measurement": "in vitro cytotoxicity, fold lower than free Dox", "setting": "[1]; C26 and MIA PaCa-2 cells", "value": "10-30 fold"}, {"measurement": "IC50", "setting": "[2]", "value": "1.4 µM and 1.41 µM"}, {"measurement": "binding to HSA by mobility shift", "setting": "[3]", "value": "confirmed binding"}, {"measurement": "maximum tolerated dose (MTD)", "setting": "[4]; i.v., healthy BALB/c mice, two weeks, no mortality or body weight loss greater than 15%", "value": 20, "unit": "mg Dox Equiv.kg^−1"}, {"measurement": "maximum tolerated dose, fold higher than free drug", "setting": "[4]; mouse, in vivo", "value": 2, "unit": "fold"}, {"measurement": "ΔH", "setting": "[5]", "value": -4.45, "unit": "kcal/mol"}, {"measurement": "ΔS", "setting": "[5]", "value": 76.6, "unit": "Jmol^−1K^−1"}, {"measurement": "n (binding stoichiometry)", "setting": "[5]; independent binding site model", "value": "0.94 and 0.9"}, {"measurement": "aqueous solubility", "setting": "[6]", "value": "up to 4 mg Dox Equiv.mL^−1"}, {"measurement": "IC50", "setting": "[7]", "value": 8.9, "unit": "µM"}]}]}
